From PMC10464462

Molecular target: His-E-cadherin fusion protein (UniProt P12830)
Test: MST; RED-NHS-labelled His-E-cadherin at constant concentration (1 µM) with 2-fold serial dilutions of GST-KRT18 in MST-optimized buffer; 15 min at room temperature; Monolith NT.115; 20 and 40% MST power

UniProt P12830, sequence (P12830 155-882): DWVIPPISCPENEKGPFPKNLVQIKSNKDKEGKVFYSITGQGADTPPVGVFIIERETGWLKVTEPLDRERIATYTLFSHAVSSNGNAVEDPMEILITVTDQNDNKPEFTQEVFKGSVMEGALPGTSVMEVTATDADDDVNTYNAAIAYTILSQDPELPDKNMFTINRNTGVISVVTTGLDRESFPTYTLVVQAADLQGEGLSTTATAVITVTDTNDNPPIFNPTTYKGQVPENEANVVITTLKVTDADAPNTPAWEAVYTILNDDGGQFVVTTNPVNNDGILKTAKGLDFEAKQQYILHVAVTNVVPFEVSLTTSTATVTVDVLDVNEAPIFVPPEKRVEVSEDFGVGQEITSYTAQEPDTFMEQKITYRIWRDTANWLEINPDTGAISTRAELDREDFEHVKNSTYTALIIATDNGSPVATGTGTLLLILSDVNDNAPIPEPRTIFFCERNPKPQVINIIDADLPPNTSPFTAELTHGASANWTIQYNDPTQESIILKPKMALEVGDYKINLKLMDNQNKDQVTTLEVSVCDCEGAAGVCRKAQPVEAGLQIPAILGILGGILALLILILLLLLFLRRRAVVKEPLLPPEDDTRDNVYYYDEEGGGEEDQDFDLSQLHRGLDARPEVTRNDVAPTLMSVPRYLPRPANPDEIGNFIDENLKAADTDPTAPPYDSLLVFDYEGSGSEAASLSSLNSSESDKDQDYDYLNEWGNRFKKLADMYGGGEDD

Kd: 5.6 µM
B1: GST-KRT18 fusion protein (natural protein)
chain: MSFTTRSTFSTNYRSLGSVQAPSYGARPVSSAASVYAGAGGSGSRISVSRSTSFRGGMGSGGLATGIAGGLAGMGGIQNEKETMQSLNDRLASYLDRVRSLETENRRLESKIREHLEKKGPQVRDWSHYFKIIEDLRAQIFANTVDNARIVLQIDNARLAADDFRVKYETELAMRQSVENDIHGLRKVIDDTNITRLQLETEIEALKEELLFMKKNHEEEVKGLQAQIASSGLTVEVDAPKSQDLAKIMADIRAQYDELARKNREELDKYWSQQIEESTTVVTTQSAEVGAAETTLTELRRTVQSLEIDLDSMRNLKASLENSLREVEARYALQMEQLNGILLHLESELAQTRAEGQRQAQEYEALLNIKVKLEAEIATYRRLLEDGEDFNLGDALDSSNSMQTIQKTTTRRIVDGKVVSETNDTKVLRH
